Test results published in the supplement of paper PMC10567573.
± gives the standard deviation.

Assay: protein stability index of a GFP-peptide fusion (GPS, HEK-293T) (PSI 1-6); higher = more stable
[1] = treatment: DMSO, c terminus: a fixed tail appended
[2] = treatment: MLN4924 1 uM, 8 h, c terminus: a fixed tail appended
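Further: 24-mer peptide tiles fused after GFP, lentivirally expressed, FACS-sorted into six equal bins by GFP/DsRed ratio, decoded by Illumina sequencing, PSI is the read-weighted mean bin number.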

| Sequence | protein stability index [1] | protein stability index [2] | protein stability index (treatment: DMSO, c terminus: native) | protein stability index (treatment: MLN4924 1 uM, 8 h, c terminus: native) |
| --- | --- | --- | --- | --- |
| PNINKISMQAVLDYLYTKQLSPNL [RHOBTB1] | 2.25 ± 0.68 | 2.16 ± 0.31 |  |  |
| DEEKQEYLNEYEAEKIEYNESMKA [SMARCE1] | 5.5 ± 0.17 | 5.05 ± 0.36 |  |  |
| FIGEESVAAGEKSILTDNPTWIID [IMPA1] | 2.82 ± 0.46 | 3.38 ± 0.28 |  |  |
| SQSWHTESLPVSLGPESWQQIAMD [BCL2L13] | 3.79 ± 0.24 | 3.93 ± 0.23 |  |  |
| GSRCLKTFEVPEENTAETITRVLY [ZBED1] | 2.66 ± 0.47 | 2.64 ± 0.18 |  |  |
| MKEQDLMCIKLHGVSKVGLRKIID [KLHL13] | 2.18 ± 0.53 | 2.15 ± 0.44 |  |  |
| FYMEEGVPYCERDYEKMFGTKCHG [PDLIM7] | 2.78 ± 0.4 | 3.19 ± 0.31 |  |  |
| TYGQPKQAPPADFIPAHVAFDKKV [EFHC1] | 3.81 ± 0.34 | 4.16 ± 0.061 |  |  |
| IGGLLGATFNCLNKRLAKYRMRNV [CLCN6] | 2.34 ± 0.2 | 2.2 ± 0.53 |  |  |
| HTMRKISNNITLREDQLDTVLAVL [INTS4] | 2.39 ± 0.27 | 2.35 ± 0.21 |  |  |
| AKVYVGVKQEIAEMRIPALNAYMK [NCF4] | 2.13 ± 0.2 | 2.32 ± 0.29 |  |  |
| FMLGLGTLLPWNFFMTATQYFTNR [SLC29A1] | 2.87 ± 0.55 | 3.13 ± 0.26 |  |  |
| HSVNRDLNELERLSNLVGKPSENH [MED27] | 4.75 ± 0.18 | 4.71 ± 0.11 |  |  |
| IRKYNYVAMDTEFPGVVARPIGEF [CNOT7] | 2.21 ± 0.19 | 2.16 ± 0.2 |  |  |
| VGEIVGIITRHNLTYEFLQARLRQ [CLCN6] | 2.73 ± 0.64 | 2.67 ± 0.85 |  |  |
| NIPGDVLRAVEQAMGHSQDRLTTF [LRRC45] | 3.09 ± 0.14 | 3.19 ± 0.078 |  |  |
| SQVTATSGNGDFGDWSAFNQAPSG [CLINT1] | 4.59 ± 0.068 | 4.36 ± 0.21 |  |  |
| NFVHRFPFVAVSIGFAVNKKIEFG [IMPA1] | 2.91 ± 0.76 | 2.77 ± 0.61 |  |  |
| KFYTWLWGVFYYFVSALGITAGAH [SCD] | 2.253 ± 0.003 | 2.84 ± 1.1 |  |  |
| LREKVEFLRSLRQMKQKVQSLYQE [NFE2L1] | 2.09 ± 0.58 | 2.82 ± 0.52 |  |  |
| TGLVYDQNMMNHCNLWDSHHPEVP [HDAC6] | 3.08 ± 0.29 | 3.25 ± 0.18 |  |  |
| AKVDSSGVIDLFGDAFGSSASEPQ [SNAP91] | 4.47 ± 0.23 | 4.57 ± 0.19 |  |  |
| GAHTLVNHGYAEPAAGRELPPDMT [KCNA3] | 4.87 ± 0.13 | 4.73 ± 0.17 |  |  |

| Sequence | protein stability index [1] | protein stability index [2] | protein stability index (treatment: DMSO, c terminus: native) | protein stability index (treatment: MLN4924 1 uM, 8 h, c terminus: native) |
| --- | --- | --- | --- | --- |
| RRFNENAADRHINFCKEQAARISN [ZC2HC1A] | 2.56 ± 0.17 | 2.51 ± 0.39 |  |  |
| DGTSPLNTVERYNPQENRWHTIAP [KLHL20] | 4.12 ± 0.26 | 4.26 ± 0.35 |  |  |
| LQTMLRQSAFLHLPLPEQIHKASA [INTS4] | 2.56 ± 0.22 | 2.44 ± 0.15 |  |  |
| CVPVFANMSREPFSTRALVLSILH [SOAT2] | 2.22 ± 0.21 | 2 ± 0.22 |  |  |
| IGATFTDWFTSYVKNVVSGGFPII [FBXO3] | 2.65 ± 0.84 | 2.7 ± 0.76 |  |  |
| VKDDELDAMLKEASGPINFTMFLN [MYL5] | 3.39 ± 0.082 | 3.5 ± 0.19 |  |  |
| MEEMQNKAVVFFVFYLWSAIEIFR [HACD3] | 2.7 | 2.8 ± 0.63 |  |  |
| YFMIQALNQKTSEKMKKRKMSNSF [RHOBTB3] | 2.24 ± 0.08 | 2.37 ± 0.33 |  |  |
| DGAAYIGNFDWVGNDFTQNAGTGL [PLD5] | 3.3 ± 0.49 | 3.44 ± 0.14 |  |  |
| PKMRSKEQILELLVLEQFLTILPT [ZNF449] | 3.07 ± 0.96 | 3.36 ± 0.73 |  |  |
| EAHFMLQVADINDNPPTFSQVSYF [PCDHGA10] | 2.34 ± 0.41 | 2.33 ± 0.25 |  |  |
| PVKPVTFSTGIKMGQHISLAPIHK [MNAT1] | 2.96 ± 0.34 | 2.96 ± 0.32 |  |  |
| ILSFILAIPEAIGFVMVPFEYRGE [EDNRA] | 3.6 ± 0.94 | 3.15 ± 0.51 |  |  |
| PEIDMFLNVATFLDPRYKRLPFLS [ZBED1] | 2.42 ± 0.43 | 2.25 ± 0.48 |  |  |
| EELDGLCFKGELPLRAVHINLEEK [PLEKHN1] | 4.41 ± 0.26 | 4.44 ± 0.29 |  |  |
| KLSARDHQKLEREARICRLLKHSN [CAMK2B] | 3.16 ± 0.47 | 3.52 ± 0.17 |  |  |
| VFFIYLYQRWIYRVDPTRVNEFGM [CLPTM1] | 2.96 ± 0.49 | 2.69 ± 0.055 |  |  |
| FLQRGADTNLGRLEDGQTPLHLSA [ASB7] | 3.61 ± 0.17 | 3.76 ± 0.26 |  |  |
| QNLANEEVRKLTQRLEEMTQRMEA [MATN2] | 4.67 ± 0.14 | 4.87 ± 0.39 |  |  |
| FLEEDNYKNIKRPPGDIMFLLVQR [USP39] | 2.23 ± 0.37 | 2.11 ± 0.27 |  |  |
| VFQTEQKNLFRLEMDMVVFRPEMK [N4BP2L1] | 2.02 ± 0.26 | 2.16 ± 0.092 |  |  |
| LGLSLTNGLALGPDLNILEDSAES [PSD2] | 4.56 ± 0.15 | 4.78 ± 0.31 |  |  |
| VFPGARLLTIGDANGEIQRHAEQQ [CARM1] | 4.64 ± 0.16 | 4.23 ± 0.2 |  |  |

| Sequence | protein stability index [1] | protein stability index [2] | protein stability index (treatment: DMSO, c terminus: native) | protein stability index (treatment: MLN4924 1 uM, 8 h, c terminus: native) |
| --- | --- | --- | --- | --- |
| YLTSQLPPLREIILGPSSAYTQTQ [NFE2L1] | 2.38 ± 0.3 | 2.52 ± 0.1 |  |  |
| PAVPFAPHFLQGGPFPLPYTAPGG [TBX6] | 2.95 ± 0.097 | 3.03 ± 0.14 |  |  |
| DNARLAVDDFRLKYENELALRQSV [KRT13] | 3.92 ± 0.14 | 3.86 ± 0.18 |  |  |
| ELFSYLRNRGRFSSTTGLFYSAEI [PRKX] | 2.36 ± 0.84 | 2.44 ± 1.3 |  |  |
| VPCYSKTQKLSKIETLRLAKNYIW [NEUROD6] | 2.43 ± 0.34 | 2.81 ± 0.58 |  |  |
| RDPFECNMCGYHSQDRYEFSSHIT [IKZF1] | 2.33 ± 0.4 | 2.33 ± 0.59 |  |  |
| DGMSGLAGVGLSGGAAGAGWCIFV [ELAVL3] | 2.83 ± 1.1 | 2.69 ± 0.98 |  |  |
| NGERESGLRSLRLFQKLEENGDLY [WDR41] | 3.29 ± 0.12 | 3.52 ± 0.23 |  |  |
| PECRQVLKTSRKDVKDKETTENEN [CHGB] | 5.54 ± 0.3 | 5.45 ± 0.37 |  |  |
| LWELCHLWLRPEVHTKEQILELLV [ZNF396] | 2.22 ± 0.36 | 2.31 ± 0.072 |  |  |
| DVKDKETTENENTKFEVRLLRDPA [CHGB] | 4.33 ± 0.41 | 4.7 ± 0.3 |  |  |
| RGEVPWSPELGRPHDRSQGDWAPP [ZNF263] | 4 ± 0.19 | 4.12 ± 0.35 |  |  |
| TPGSRIESILMSLPLTARWEYMHS [CPOX] | 2.33 ± 0.27 | 2.24 ± 0.12 |  |  |
| LLATAEQEQLSLSQRQAKELKLEQ [LRRC45] | 4.88 ± 0.21 | 5.02 ± 0.15 |  |  |
| LKRLYRAPIDWIEEYTTGMADCIL [ALG2] | 2.26 ± 0.68 | 2.28 ± 0.69 |  |  |
| ACVVQQKDARQWFAELSVDMEKIL [CCNC] | 2.51 ± 0.26 | 2.42 ± 0.17 |  |  |
| NVPNPRIKLIDFGIAHKIEAGNEF [DAPK3] | 3.2 ± 0.087 | 3.1 ± 0.35 |  |  |
| EEILTLFCGAPPVTPIIVLSIINF [PHTF1] | 2.84 ± 0.26 | 2.97 ± 0.51 |  |  |
| IYAFAGMTNHQLSTTEWNDETLYQ [CHIT1] | 2.36 ± 0.26 | 2.61 ± 0.22 |  |  |
| HSLQQSEPDLRHLVLVVNTLRRIQ [SERTAD1] | 2.44 ± 0.33 | 2.61 ± 0.17 |  |  |
| LKYMEVTLRPTDSQSHCYRTCFSP [PCDHGC5] | 2.31 ± 0.2 | 2.25 ± 0.34 |  |  |
| TLSLKQTILDKEEKQRRNVAKNY [TTC32] |  |  | 4.27 ± 0.36 | 4.29 ± 0.54 |
| AKVESMDQEIKFFRCLFEAEITQI [KRT71] | 2.01 ± 0.51 | 2.19 ± 0.15 |  |  |

| Sequence | protein stability index [1] | protein stability index [2] | protein stability index (treatment: DMSO, c terminus: native) | protein stability index (treatment: MLN4924 1 uM, 8 h, c terminus: native) |
| --- | --- | --- | --- | --- |
| AAVFKETFKSLSHIDPDVLYPSLN [ALG2] | 2.72 ± 0.17 | 2.71 ± 0.22 |  |  |
| HEEFFPAFQAFTNDLLEILEIDDL [CEP70] | 3.48 ± 0.21 | 3.43 ± 0.37 |  |  |
| EADYEDDSKIAFLMQLQDIQYLTE [IQUB] | 3.3 ± 0.2 | 3.38 ± 0.57 |  |  |
| PDAWCDLSKFDLPEEPSAEDSINN [MYBL2] | 5.52 ± 0.12 | 5.42 ± 0.31 |  |  |
| NLGRMIDWVPVESLLRPLNSLAAL [ZER1] | 1.72 ± 0.18 | 2.28 ± 0.66 |  |  |
| QTLLPAACLLQLAEIQEACCEFLK [KLHL20] | 2.21 ± 0.31 | 2.36 ± 0.15 |  |  |
| RRETVLFTDYGLAALAVNTSILSR [RNF208] | 2.09 ± 0.43 | 2.12 ± 0.18 |  |  |
| RLLDHQDNILSLINVNDLSFVTGS [WDR41] | 2.22 ± 0.28 | 2.51 ± 0.3 |  |  |
| DQEEIKTLERYMCSRFFIDFPDIL [TENT5C] | 2.45 ± 0.16 | 2.56 ± 0.33 |  |  |
| VSPGPSRSFKEELLCAVCYDPFRD [TRIM35] | 2.79 ± 0.21 | 2.91 ± 0.27 |  |  |
| TEKKQTKVEFPEARIYEETLNILL [KCTD10] | 2.12 ± 0.1 | 2.23 ± 0.33 |  |  |
| LWDTSGQGRFCTIFRSYSRGAQGI [RAB40C] | 2.39 ± 0.41 | 2.31 ± 0.37 |  |  |
| EHRHLNPDTELKRYFGARAILGEQ [TCF25] | 3.46 ± 0.32 | 3.47 ± 0.54 |  |  |
| PLFNPMIYSLRNKEFKSALCKIVR [OR10K2] | 2.32 ± 0.071 | 1.9 ± 0.5 |  |  |
| AEKKKPKTQIVCKHFLEAIENNKY [ZC3H15] | 3.51 ± 0.41 | 3.63 ± 0.25 |  |  |
| QCPMRVQKEVAGFVLNRLQYAIIS [CRYL1] | 3 ± 0.78 | 2.38 ± 1 |  |  |
| LLPNQSHGNQSAGEDQAFGDWLLT [SLC22A15] | 4.14 ± 0.35 | 4.24 ± 0.18 |  |  |
| RILWKKIQENQRNLYEEGRTAFLW [TRIM43] | 2.08 ± 0.36 | 2.31 ± 0.28 |  |  |
| LTFGPDSRHCPQLPPPCAALWCSG [ADAMTS4] | 2.29 ± 0.36 | 2.46 ± 0.32 |  |  |
| VLLKTADPRYELPSRKYISTKAIP [ZBED1] | 2.19 ± 0.37 | 2.34 ± 0.62 |  |  |
